Experimental data as given in patent US20240132589A1 (ONCORESPONSE, published 2024).

Experiments:
[1] = target: T1, LILRB2-Fc protein (human, UniProt Q8N423 22-460, limits assumed); experiment: blocking ELISA, LILRB2-Fc binding to coated monomer HLA-G; Exp II
T1 construct: also called human LILRB2-Fc; not shown: Fc part
Description: (§1) Tumor-associated HLA-G is an HLA Class I ligand for LILRB2. Binding of HLA-G to LILRB2 induces an immune suppressive signal in LILRB2 expressing myeloid cells. To determine if the anti-LILRB2 antibodies block the HLA-G-LILRB2 interaction and prevent the induction of an inhibitory signal, blocking ELISA assays in a dose titration were performed. 384-well plates were coated with monomer HLA-G (Fred Hutchinson Cancer Research Center, No. bHLA-G) at a concentration of 5 μg/mL, diluted in PBS, then plates were incubated at RT for 1 hour. Plates were rinsed with Wash Buffer three times, then blocked with Blocking Buffer A for 30 minutes at RT. During blocking incubation step, LILRB2-Fc protein and antibody titrations were prepared in Blocking Buffer A. LILRB2-Fc protein was then incubated with antibody titrations for 30 minutes at RT to allow for binding prior to addition onto plate. Plates were rinsed three times with Wash Buffer, then 25 μL of protein/antibody mixture was added per well and incubated for 1 hour at RT. Following antibody incubation, plates were washed three times with Wash Buffer. Anti-human IgG Fc-HRP secondary antibody was diluted and added at 25 μL/well. Plates were incubated in the dark for 1 hour at RT. Following secondary antibody incubation, plates were washed four times with Wash Buffer. 25 μL/well ultra-neat TMB was added per well for development and incubated for 5 minutes at RT. Reaction was stopped using 0.3 M HCl (25 μL/well). Absorbance was read at 450 nm using the Envision. The IC₅₀ for HLA-G blocking by clone B2A-IgG4 was 0.066 μg/mL.
(§2) Select humanized IgG4 variant antibodies were tested for their ability to block binding of human LILRB2-Fc to monomer HLA-G by ELISA, using the method described in Example 7.

[2] = target: T2, Recombinant human LILRB2 protein (ELISA antigen) (human, UniProt Q8N423 22-460); experiment: ELISA, immobilized LILRB2-His; conditioned media of transient transfections
T2 construct: also called LILRB2-His; recombinant LILRB2
Description: (§3) To confirm binding to human and cynomolgus LILRB2, antibodies in supernatants were evaluated for binding by enzyme-linked immunosorbent assay (ELISA). Recombinant LILRB2 proteins (human: SEQ ID NO: 48; cynomolgus) were diluted in PBS to 2 μg/mL and added to 384-well high-binding ELISA plates (Greiner Bio-One Microlon™) at 25 μL/well and incubated at 4° C. overnight. The plates were washed three times with Wash Buffer (0.05% Tween® 20 in PBS), using a microplate washer and then blocked with 90 μL/well of ELISA Blocking Buffer A (1% BSA in PBS) for 1 hour at room temperature (RT). After blocking, 25 μL/well of LILRB2 antibodies or isotype control were added to the plates and incubated for 1 hour at RT. After primary antibody binding, plates were washed three times with Wash Buffer using a microplate washer. Secondary detection antibody (HRP-goat anti-rabbit Fab fragment) was diluted to 1:3000 in assay diluent (1% BSA in PBS) and 25 μL/well was added to plates and incubated at RT protected from light for 1 hour. Following incubation, plates were washed four times with Wash Buffer, using a microplate washer. After removal of the final wash, 25 μL/well of 1-Step™ Ultra TMB-ELISA Substrate Solution (Thermo Fisher, No. 34028) was added and plates were incubated for 5-10 min at RT, protected from light. After development, the reaction was stopped by addition of 25 μL/well of 0.3 M HCl, and plates were read using an EnVision (Perkin Elmer) microplate reader at 450 nm. EC₅₀ values were calculated based on log concentration of the primary antibodies at optical density at 450 nm.
Twenty-five IgG4 variants were expressed in mammalian cell culture as a combinatorial library of the five light and five heavy chains. In addition, B2A-IgG4 was included as a transfection control. The conditioned media from these transient transfections were assayed for human IgG concentration. A plate-based ELISA (see Example 2) was performed in which LILRB2-His was immobilized, and binding of humanized mAb variants was detected via an anti-human IgG4 HRP-labeled secondary antibody. The parental rabbit/human chimera clone transfection served as the benchmark EC₅₀ positive control.

[3] = target: T2, Recombinant human LILRB2 protein (ELISA …); experiment: ELISA, plate-coated recombinant human LILRB2
Description: as §3
(§4) Select humanized variant antibodies were purified and tested for their ability to bind human LILRB2 by ELISA, using the method described in Example 2, and binding to HEK293T cells expressing human LILRB2, using the method described in Example 4. Representative data are shown for IgG4 variants in Table 6.

[4] = target: T3, Human LILRB2 on stably transduced HEK293T cells (human, UniProt Q8N423 22-597); experiment: flow cytometry, HEK293T cells stably expressing human LILRB2
T3 construct: Lentiviral transduction (G&P Biosciences LTV2992); also called HEK293T-LILRB2; LILRB2-expressing HEK293T cells
Description: To confirm binding of LILRB2 antibodies, flow cytometry binding assays were performed using HEK293T cells stably expressing human LILRB2 (Example 3). […] The B2A-IgG1 and B2A-IgG4 chimeras bound the LILRB2-expressing HEK293T cells, with equivalent EC₅₀ values of 0.21 nM and 0.30 nM respectively.
as §4

[5] = target: T1, LILRB2-Fc protein; experiment: blocking ELISA, LILRB2-Fc binding to coated monomer HLA-G; Exp I
Description: as §1, §2

T3 sequence (Q8N423 other isoform, or with tags, fused parts or gaps limits assumed): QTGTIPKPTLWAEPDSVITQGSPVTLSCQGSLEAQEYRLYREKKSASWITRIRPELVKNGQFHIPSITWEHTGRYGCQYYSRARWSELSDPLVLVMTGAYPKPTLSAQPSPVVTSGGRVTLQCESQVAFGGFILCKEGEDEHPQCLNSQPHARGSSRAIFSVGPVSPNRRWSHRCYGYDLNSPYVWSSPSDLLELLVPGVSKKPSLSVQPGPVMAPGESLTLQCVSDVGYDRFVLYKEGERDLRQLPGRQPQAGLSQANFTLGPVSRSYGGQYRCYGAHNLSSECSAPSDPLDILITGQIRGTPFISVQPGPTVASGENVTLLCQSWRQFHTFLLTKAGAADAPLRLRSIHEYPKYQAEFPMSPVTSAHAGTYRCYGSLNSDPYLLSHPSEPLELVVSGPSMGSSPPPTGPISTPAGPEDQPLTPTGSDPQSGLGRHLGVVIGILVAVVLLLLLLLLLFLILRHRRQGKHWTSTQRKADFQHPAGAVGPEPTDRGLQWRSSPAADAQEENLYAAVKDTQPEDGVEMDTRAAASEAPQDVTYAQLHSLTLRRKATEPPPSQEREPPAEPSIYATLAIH
T2 sequence (Q8N423 other isoform, or with tags, fused parts or gaps limits assumed): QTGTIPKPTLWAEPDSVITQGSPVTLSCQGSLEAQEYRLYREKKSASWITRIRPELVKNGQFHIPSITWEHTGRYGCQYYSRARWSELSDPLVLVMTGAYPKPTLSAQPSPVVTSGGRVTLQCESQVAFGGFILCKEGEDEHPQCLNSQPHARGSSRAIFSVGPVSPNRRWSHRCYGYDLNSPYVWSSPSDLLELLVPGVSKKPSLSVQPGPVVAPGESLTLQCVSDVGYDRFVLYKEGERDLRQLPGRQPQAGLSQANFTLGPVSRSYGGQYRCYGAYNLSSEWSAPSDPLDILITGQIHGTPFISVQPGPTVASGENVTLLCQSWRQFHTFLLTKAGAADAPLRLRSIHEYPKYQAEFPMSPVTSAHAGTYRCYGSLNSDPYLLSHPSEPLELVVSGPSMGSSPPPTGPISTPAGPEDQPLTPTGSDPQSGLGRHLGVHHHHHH
T1 sequence (Q8N423 22-460 limits assumed): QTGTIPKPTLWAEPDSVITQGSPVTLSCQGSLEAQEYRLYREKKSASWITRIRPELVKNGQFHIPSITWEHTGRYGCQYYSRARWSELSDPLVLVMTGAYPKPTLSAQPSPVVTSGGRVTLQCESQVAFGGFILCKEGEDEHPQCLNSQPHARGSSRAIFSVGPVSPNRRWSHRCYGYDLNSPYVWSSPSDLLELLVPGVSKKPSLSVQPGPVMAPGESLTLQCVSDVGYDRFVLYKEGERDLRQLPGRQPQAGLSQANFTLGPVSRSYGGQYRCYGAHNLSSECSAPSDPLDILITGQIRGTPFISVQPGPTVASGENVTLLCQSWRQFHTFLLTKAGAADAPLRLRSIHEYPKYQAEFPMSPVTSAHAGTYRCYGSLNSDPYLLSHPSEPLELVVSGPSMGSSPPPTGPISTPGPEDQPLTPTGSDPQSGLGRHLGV

IC50 [1] [µg/mL]	EC50 [2] [ng/mL]	EC50 [3] [ng/mL]	BMAX [gMFI] [4] [gMFI]	EC50 [4] [ng/mL]	IC50 [5] [µg/mL]	Binder
5.14	4.67	2.75	9990	0.21	5.16	B2H4-35 (antibody, V domains shown, Humanized variant, human IgG4 / kappa) VH: QVQLVESGGRVVQPGTPLRLSCAASGFSLSTYAMSWVRQAPGKGLEWVAWIYNDGSTYYAAWAKGRFTISRDTSKNTLYLQTNSLKPDDTAVYYCAREGDYIGYFNIWGQGTLVTVSS VL: DVVMTQTPSSVSAALGGTVTIKCQASQSIGSNLAWYQLKPGQRPKLLIYAAATLASGGSSRFKGSGSGTDFTLTISSLEPADAATYYCQSYVSGSSDVAFGGGTEVVVK
6.76	3.76	3.05	10100	0.28	5.78	B2H4-41 (antibody, V domains shown, Humanized variant, human IgG4 / kappa) VH: EVQLLESGGRLVQPGTSLRLSCAVSGFSLSTYAMSWVRQAPGKGLEWIGWIYNDGSTYYAAWAKGRFTISKDTSKTTLYLQMNSLTVEDTATYFCAREGDYIGYFNIWGQGTLVTVSS VL: DIQMTQSPSSLSASVGDRVTITCQASQSIGSNLAWYQLKPGQRPKLLIYAAATLASGVPSRFKGSGSGTDFTLTISSLQSEDAATYYCQSYVSGSSDVAFGGGTEVVVK
5.97	4.5	3.55	9950	0.31	5.85	B2H4-13 (antibody, V domains shown, Humanized variant, human IgG4 / kappa) VH: QVQLEESGGRVVQPGRSLRLSCAASGFSLSTYAMSWVRQAPGKGLEWIGWIYNDGSTYYAAWAKGRFTISKDTSKTTVFLQMNSLKPDDTATYFCAREGDYIGYFNIWGQGTLVTVSS VL: DIEMTQSPSSVSASVGDRVTLTCQASQSIGSNLAWYQQKPGQAPKLLIYAAATLASGVPSRFKGSGSGTDFTLTISSLQPEDFATYYCQSYVSGSSDVAFGGGTEVVVK
7.99	4.2	3.98	9840	0.32	7.31	B2H4-11 (antibody, V domains shown, Humanized variant, human IgG4 / kappa) VH: QVQLEESGGRVVQPGRSLRLSCAASGFSLSTYAMSWVRQAPGKGLEWIGWIYNDGSTYYAAWAKGRFTISKDTSKTTVFLQMNSLKPDDTATYFCAREGDYIGYFNIWGQGTLVTVSS VL: DIQMTQSPSSLSASVGDRVTITCQASQSIGSNLAWYQLKPGQRPKLLIYAAATLASGVPSRFKGSGSGTDFTLTISSLQSEDAATYYCQSYVSGSSDVAFGGGTEVVVK
7.29	4.6	2.84	10900	0.31	7.04	B2H4-44 (antibody, V domains shown, Humanized variant, human IgG4 / kappa) VH: EVQLLESGGRLVQPGTSLRLSCAVSGFSLSTYAMSWVRQAPGKGLEWIGWIYNDGSTYYAAWAKGRFTISKDTSKTTLYLQMNSLTVEDTATYFCAREGDYIGYFNIWGQGTLVTVSS VL: DIQMTQSPSSVSASVGDRVTITCQASQSIGSNLAWYQQKPGKAPKLLIYAAATLASGVPLRFSGSGSGTDFTLTISNLQPEDSATYYCQSYVSGSSDVAFGGGTKVEIK
9.05	3.85	3.27	10700	0.37	8.11	B2H4-51 (antibody, V domains shown, Humanized variant, human IgG4 / kappa) VH: EVQLLESGGGLVQPGTSLTLSCAASGFSLSTYAMSWVRQAPGKGLEWIGWIYNDGSTYYAAWAKGRFTISKDTSKTTLYLQITSLRAEDTATYFCAREGDYIGYFNIWGQGTLVTVSS VL: DIQMTQSPSSLSASVGDRVTITCQASQSIGSNLAWYQLKPGQRPKLLIYAAATLASGVPSRFKGSGSGTDFTLTISSLQSEDAATYYCQSYVSGSSDVAFGGGTEVVVK
